What all share (format): cell-based
The test system of assay [1] is RPMI-7951. Briefly: PDGFβ stimulation and MEK inhibition of PDGFβ stimulation (FIGS. 23 and 24). Particulars: PDGFβ stimulation.
The subject of assay [2] is RPMI-7951. The assay is described as follows: Melanoma pErk induction following stimulation by TPA (FIG. 17).
For assay [3], the system named is human pancreatic neuroendocrine tumors (PanNETs). Briefly: Pancreatic tumor functional signaling profile upon TPA stimulation (FIG. 18). Particulars: tumor sample 10189 (metastatic PancNET). From the text:
All samples except 10195 are examples of human pancreatic neuroendocrine tumors (PanNETs). 10195 is a sample of a human pancreatic adenocarcinoma. The data reveal differences in functional profiles based on TPA stimulation using three different phosphoprotein biomarkers (p-ERK1/2, p-GSKα/β, and p-STAT3).

B1: PDGFβ: platelet-derived growth factor stimulus applied to melanoma cell lines (protein, UniProt P01127 82-190, looked up)
Platelet-derived growth …: SLGSLTIAEPAMIAECKTRTEVFEISRRLIDRTNANFLVWPPCVEVQRCSGCCNNRNVQCRPTQVQLRPVQVRKIEIVRKKPIFKKATVTLEDHLACKCETVAAARPVT
Regarding B1, the pPDGF entry in assay [1] was “activated”.

B2: tissue plasminogen activator (protein, UniProt P00750 36-562, looked up)
Tissue-type plasminogen …: SYQVICRDEKTQMIYQQHQSWLRPVLRSNRVEYCWCNSGRAQCHSVPVKSCSEPRCFNGGTCQQALYFSDFVCQCPEGFAGKCCEIDTRATCYEDQGISYRGTWSTAESGAECTNWNSSALAQKPYSGRRPDAIRLGLGNHNYCRNPDRDSKPWCYVFKAGKYSSEFCSTPACSEGNSDCYFGNGSAYRGTHSLTESGASCLPWNSMILIGKVYTAQNPSAQALGLGKHNYCRNPDGDAKPWCHVLKNRRLTWEYCDVPSCSTCGLRQYSQPQFRIKGGLFADIASHPWQAAIFAKHRRSPGERFLCGGILISSCWILSAAHCFQERFPPHHLTVILGRTYRVVPGEEEQKFEVEKYIVHKEFDDDTYDNDIALLQLKSDSSRCAQESSVVRTVCLPPADLQLPDWTECELSGYGKHEALSPFYSERLKEAHVRLYPSSRCTSQHLLNRTVTDNMLCAGDTRSGGPQANLHDACQGDSGGPLVCLNDGRMTLVGIISWGLGCGQKDVPGVYTKVTNYLDWIRDNMRP
notes: modulator used for ex vivo stimulation
In the case of B2, the pErk result in assay [2] was “induction”. This molecule also had a pERK induction in assay [3] of 10 ×.
